Laboratory results taken from the nanobody polyreactivity screen of Harvey et al. (2022).

Test: yeast display, Sf9 membrane polyspecificity reagent, FACS + sequencing; frameworks hold sequencing errors
How it was run: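 Using colony PCR, genes from sorted yeast display clones were amplified, then sequenced on MiSeq at 2 × 250 and filtered by CDR length. The clones had been stained with 10% biotinylated, detergent-solubilized Sf9 membrane reagent for 1 hour at 4 °C and sorted by FACS into low and high (top ~1%) gates on anti-HA and streptavidin fluorescence. Polyreactivity labels come from the gate of origin.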

Row | Sequence | polyreactivity (PSR sort gate)
1 | QVQLVESGGGLVQAGGSLRLSCAASGRIFDVYAMGWYRQAPGKERELVATITGSGGGTYYADSVKGRFTISRDNAKNPVYLQMNSLKPEDTADYYCAADYYPTYAYYVSNVGYDYWGQGTQVTVSS | low polyreactivity
2 | QVQLVESGGGLVQAGGSLRLSCAASGSLFGRYAMGWYRQAPGTEREFVAAISRGATNTYYADSVKGRFTISRDNAKNTVYLQMNSLKPEDTAVYYCARTQRYDYGYDYWGQGTQVTVSS | low polyreactivity
3 | QAQLVESGGGLVQAGGRLRLICAASGSIFAGYAMGWSRQAPGKERELVATITSSSRTNYADSVKGRFSISRDNAKNNVYLQMNILKPEETAVSYCAARGRSVIDVYRMYYWGQGTKVTVSS | high polyreactivity
4 | QVQLVESGGGLVQAGGSLRLSCAASGRTFRVYVMGWYRQAPGKERELVAAISKSGTSTYYADSVKGRFTISRDNAKNTVYLQMNSLKPEDTAVYYCAAALPGYGDYYYWGQGTQVTVSS | high polyreactivity
5 | QVQLVESGGGLVQAGGSLRLSCAASGRNFYYYTMGWYRQAPGKERALVASISQSGARTYYADSVKGRFTISRDNSKNTVYLQMNSLKPVYTAVYYCNAVGTGGYHYWGQGTQVTVSS | high polyreactivity
6 | QVQLVESGGGLVQAGGSLRLSCAASGRIFGSYVMGWYRQAPGKERELVAAITDGGTTFYADSVKGRFTISRDNAKNTVYLPMNSLKPEDTAVYYCAARQAGYSGRKLYYWGQGTQVTVSS | low polyreactivity
7 | QVQLVESGGGLVQAGGSLRLSCAASGFTFDENAMGWYRQAPGINYSGASTYYADSVMGRFTFSRDNAKNTVYLQMNSLKPEDTAVYYCAAEVVAQMNYWGQGTQVTVSS | low polyreactivity
8 | QVQLVESGGGLVQAGGSLRLSCAASGRIFAQYAMGWYRQAPGKEREFVAAITGSTDSTYYADSVKGRFTISRDNAKNTVYLQMNSLKPEDTAVYYCAKDDAYSTIIDYEYSYDYWGQGTQVTVSS | high polyreactivity
9 | QVQLVESGGGLVQAGGSLRLSCAASGSTFGVYTMGWYRQAPGKERELVAAITKSGGSTYYADSVKGRFTISRDNAKNTVYLQMNSLKPEDTAVYYCNTDYGRYLYYRYGYWGQGTQVTVSS | low polyreactivity
10 | QVQLVESGGGLVQAGGSLRLSCAASGSIFRYNAMGWYRQAPGKERELVAAIDWSGGTYYADSVKGRFTISRDNAKNTVYLQMNSLKPEDTAVYYCNARGSTYSSYWGYDYWGQGTQVTVSS | low polyreactivity
11 | QVQLVESGGALDQARGSLSLSCAASGFLFGQNAMVWSRQAPGKLREFVATNNRSGGSTYYADSVKGRFTISRDNAKNTVYVQMNSLKPEDTAVYYCAKGPRMSSSLRYSAYWIMNYWGQGTQVTVSS | high polyreactivity
12 | QVQLVESGGGLVQAGGSLRLSCAASGRTFEQYAMGWYRQAPGKERELVAAISGSGGSTFYADSVKGRFTISRDNAKNTVYLQMNSLKPEDTAVYYCAVDAYPPFFYFTSVWFSYDYWGQGTQVTVSS | low polyreactivity
13 | QVQLVESGGGLVQAGGSLRLSCAASGSIFIYNVMGWYRQAPGKERELVATIRGSGGSTYYADSVKGRFTISRDNAKNTVYLQMNSLKPEDTAVYYCARRDYPYQWGRAYNYWGQGTQVTVSS | high polyreactivity
14 | QGQLVESGGGLVQAGGSLRLSCAASGRISYYYAMGWYRQAPGKERELVAAISRRSTSTYYADSVKGRFTISRDYAKNTVYLQMNSLKPEDTAVYYCAARYIRAFSWRMDYWGQGTQVTVSS | high polyreactivity
15 | QVQLVESCGGLVQAGGSLRLSCAASGSTFILYAMGWYRPAPGKERELVAAISWSTGITYYADSVKGRFTISRDNAKNTVYLPMNSLKPEDTAVYYCAADAWGYHDYDASYSTGYEYWGQGTQVTVSS | high polyreactivity
16 | QVQLVESGGGLVQAGGSLRLSCAASGRTFRWYAMGWYRQAPGKERELVARITYSGGSTYYADSVKGRFTISRDNAKNTVYLQMNSLKPEDTAVYYCAAKRYTGSSSIYYYWGQGTQVTVSS | high polyreactivity
17 | QDQLVESGGGLVQAGGRLRLTCAASGNTFSGNAMGWYRQAPGKERELVAAISGSGASTYYADSVKGRFTISRDNAKNTVYLQMNSLKPEDTAVYYCDADKPGIFSRFDYWGQGTQVTVSS | low polyreactivity
18 | QVQLVESGGGLVQAGGSLRLSCAASGFILKFYAMGWYRQAPGKERELVAAISRRGGSTYYADSVKGRFTISRDNAKNTVYLQMNSLKPEDTAVYHCAKDGTTSRVSDSSDYWGQGTQVTVSS | high polyreactivity
19 | QVQLVESWGGLVQAGGSLRLSCPASGYIIQTYAMGWYRQAPGKEREFLAAMTSGAGRTSYADSVKGRFTISRDNAKNTVYLQLHRLKPEDTAVYFCAARWRYQLSGSRLSYGKYDYWGQGTQVTVSS | high polyreactivity
20 | QVQLVESGGGLVQEGGSIRLSCDASGFIFDVYAIGWYRTAAGKERELVDAISSVGSTYYADSVKGRFTISRDNATNTVYLQMNSLKPEDTAVYYCADVRFYTYNYWGQGTQVTVSS | low polyreactivity
21 | QVQLVESGGGLVQAGGSLRLSCAASGSNFTTYSMGWYRQATGKERELVAASTSGSSTNYADSVKGRFTISRDNAKNTVYLQMNSLKPEDTAVYYCAVDREWPCYYYAMSKMYYWGQGTQVTVSS | low polyreactivity
22 | QVQLVESGGGLVQAGGSLRLSCAASGSIFNWYALGWYRQAPGKDRELVAAISKSGGRPYYADSVKGRFTISRDNAKNTVYLQKNSLKPEDTAVFSCNAPRFVGLNVYGYDYWGQGTQVTVSS | high polyreactivity

Row | Sequence | polyreactivity (PSR sort gate)
23 | QVQLVESGGGLVQAGGSLRLSCAASGIIFLWYAMRWYRQAPGKERELVAAISRTGSSTYYADSVKGRFTISRDTAKNTVYLQMNSLKPEDTAVYYCAAAYYSNRSWRFDYWGQGTQVTVSS | high polyreactivity
24 | QVQLVESGGVLVQAGGSLRLSCAASGITFEYYAMGWYRQAPGKERELVAAISWSGSSTYYADSVKGRFTISRDNAKNTVYLQMNSLKPEDTAVYYCNADSAWWASDDQYDYWGQGTQVTVSS | low polyreactivity
25 | QVQLVESGGGLVQAGGSLRLSCAASGRTFYFNTMGWDRPAPGKERELVAAIDERGDSTYYADSVKGRFTISRDNAKNTVYLQMNSLKPEDTAVYYCATDWTLEVYYGRYIAKYEYGSWGQGTQVTVSS | low polyreactivity
26 | QVQLVESGGGLVQAGGSLRLSCAASGSTFSRYAMGWYRQAPGKERELVAAISSSGGSTYYADSVKGRFTISRDNAKNTVYLQMNSLKPEDTAVYYCAARYYGVTRGYNYWGQGTQVTVSS | high polyreactivity
27 | QVQLVESGGGLVQAGGSLRLSCAAAGRTFFKYAMGWYRQAPGKERELVATITSSGGITYADSVKGRFTISRDNAKNTVYLQMNRLKPEDTAVYYCNARVWVTHYSELNYWVQGTQVTVSS | low polyreactivity
28 | QVQLVESGGGLVQAGGSLRLSCAASGSTFQVNAMGWYRQAPGKERELVASISGGSSTNYADSVKGRFTISRDNAKNTVYLQMNSLKPEDTAVYYCAAYYLSGLRVAYDYWGQGTQVTVSS | low polyreactivity
29 | QVQLVESGGGLVQAGGSLRLSCAASGYTFAYYVMGWYRQAPGKERELVATIRSRAGRTYYADSVKGRFTISRDNAKNTVYLQLNSLKPEDTAVYYCAAGWYYTYDYWGQGTQVTVSS | high polyreactivity
30 | QVQLVESGGGLVQAGGSLRLSCAASGSIFYIYAMGWYRQAPGKERELVATISHRGGSTYYADSVKGRFTISRDNAKNTVYLQMNSLKPEDTAVYYCAARSYYSWGRPLPSFNYWGQGTQVTVSS | high polyreactivity
31 | QVQLVESGGGLVQAGGSLRLSCAASGFIFDAYAMGWYRQAPGKERELVAAITRGNTYYADSVTGRFTISRDNAKNTVYLQMNSLKPEDTAVYYCAARYWQSYRSQVTHSSTLDYWGQGTQVTVSS | low polyreactivity
32 | QVQLVESGGGLVQAGGSLRLSCAASGLTIYYYAMGWYRQAPGKERELVAAITWRGGSTYYADSVKGRFTISRDNAKNTVYLQMNSLKPEDTAVYYCAADPGPYGYYYWGQGTQVTVSS | low polyreactivity
33 | QVQLVESGGGLVQAGGSLRLSCAASGSTFWSNAMGWYRHAPGKERELVAVISRRCVRKYYADSVKGRFTISRDNAKNNVYLQMNSLKPEDTAVFYCNAEVYGELDYWGQGTQVNVSS | low polyreactivity
34 | QVQLVESGGGLVQAGGSLRLSCAASGIIFGYYARGWYRQAPGKARELVAAISRGGNTNYADSVKGRFTISRDNAKNTVYLQMNSLKPEDTAVYYCAADFWSRIKYFYAVDVDYWGQGTQVTVSS | low polyreactivity
35 | QVQLVESGGGLVQAGGSLRLSCAASGFIFTLNAMGWYRQAPGKERELVASISSGVSTNYADSVKGRFTISRDNAKNTVYLQMNSLKPEDTAVYYCAARDTGPDGFEGDYWGQGTQVTVSS | low polyreactivity
36 | QVQLVESGGGLVQAGGSLRLSCAASGITSGTYAMGWYRQAPGKERELVAGISRSVTRTYYADSVKGRFTISRDNAKNTVYLQMNSLKPEDTAVYYCNTYVVRRPGYGYWGQGTQVTVSS | high polyreactivity
37 | QVQLVESGGGLVQAGGSLRLSCAASGIIFPGYAMGWYRQAPGKERELVAAISRSGASTYYADSVKGRFTISRDNAKNTVYLQMNSLKPEDTAVYYCAAEWYRGGEYRRYDYWGQGTQVTVSS | high polyreactivity
38 | QFQLVESGGGLVQAGGSLRLSCAASGFTFRRVTAIGWYRQAPGKERELVAGINSGDITYYADSVKGRFTFSRDNAKNTVYLQMNSLIPEDTAVYYCAARVVYGYGHNDYWGQGTQVTVSS | low polyreactivity
39 | QVQLVESGGGLVQAGGSLRLSCAASGRTFGYYAMGWYRQAPGKERELVAAISSRGGSTSYADSVKGRFTISRDNAKNTVYLQMNSLKPEDTAVYYCAVGRPRPKYEYDYWGQGTQVTVSS | high polyreactivity
40 | QVQLVESGGGLVQAGGSLRLSCAASGSIFLIYAMGWYRQAPGKERELVAAISSGGSTYYADSVKGRFTISRDNAKNTVYLQMNSLKPEDTAVYYCATYSTSVAFHLYYWGQGTQVTVSS | low polyreactivity
41 | QVQLVESGGGLVQAGASLRLSCAASGIILGSYAMGWYRQAPAKERELVAGITSGGGKYYADSVKGRFTISRDNAKNTVYLQMNSMKPEYTAVYYCAKLYFHYYRYGYWGQGTQVTVSS | low polyreactivity
42 | QVQLVESGGGIVQAGGSLSLSCRACGRSFAFYSMGWYRQEPGKERELVAAITRTGSTSYADSVNGRFTISRDNAKNTVYLQMNSLKPEDTAVYYCATVGYPYTLWHQMVYWGQGTQVTVSS | low polyreactivity
43 | QVQLVESGGGLVQAGARLRLSCAASVSTFQSNAMGWSRQAPGKERELVAAIDQSGGSTYYADSLKGRFTISRDNAKNTVYLQMNSLKPEYTAVYYCAARTSGYWFSYGSWGQGTQVTVSS | high polyreactivity
